Assay results: US20250376536A1 (Bristol-Myers Squibb, published 2025)

How the values were obtained:
[1] = target: T1, human FAP on cells (human, UniProt Q12884 1-760); assay: cell-based or functional assay
T1 sequence: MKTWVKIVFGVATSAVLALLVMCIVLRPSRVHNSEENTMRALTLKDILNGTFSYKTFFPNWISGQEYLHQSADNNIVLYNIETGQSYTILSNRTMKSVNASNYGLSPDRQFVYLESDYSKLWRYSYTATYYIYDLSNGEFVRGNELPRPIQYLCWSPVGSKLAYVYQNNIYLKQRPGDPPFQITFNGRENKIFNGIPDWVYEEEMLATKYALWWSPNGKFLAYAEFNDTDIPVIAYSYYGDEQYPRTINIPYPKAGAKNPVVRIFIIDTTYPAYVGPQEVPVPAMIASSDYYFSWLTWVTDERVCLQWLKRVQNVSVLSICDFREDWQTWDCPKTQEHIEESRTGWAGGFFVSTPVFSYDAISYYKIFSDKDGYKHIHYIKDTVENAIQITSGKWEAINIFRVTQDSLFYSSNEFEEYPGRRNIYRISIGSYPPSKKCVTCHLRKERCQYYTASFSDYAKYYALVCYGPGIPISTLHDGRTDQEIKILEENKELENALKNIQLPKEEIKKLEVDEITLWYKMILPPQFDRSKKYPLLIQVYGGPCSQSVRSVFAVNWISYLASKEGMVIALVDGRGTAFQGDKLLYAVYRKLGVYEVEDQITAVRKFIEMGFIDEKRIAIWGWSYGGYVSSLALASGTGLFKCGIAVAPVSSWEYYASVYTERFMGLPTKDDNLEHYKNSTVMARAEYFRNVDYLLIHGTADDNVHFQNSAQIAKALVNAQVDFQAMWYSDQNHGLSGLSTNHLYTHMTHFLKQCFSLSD

[2] = target: T2, soluble FAP (human, UniProt Q12884 26-760, limits assumed); assay: cell-based or functional assay
T2 sequence: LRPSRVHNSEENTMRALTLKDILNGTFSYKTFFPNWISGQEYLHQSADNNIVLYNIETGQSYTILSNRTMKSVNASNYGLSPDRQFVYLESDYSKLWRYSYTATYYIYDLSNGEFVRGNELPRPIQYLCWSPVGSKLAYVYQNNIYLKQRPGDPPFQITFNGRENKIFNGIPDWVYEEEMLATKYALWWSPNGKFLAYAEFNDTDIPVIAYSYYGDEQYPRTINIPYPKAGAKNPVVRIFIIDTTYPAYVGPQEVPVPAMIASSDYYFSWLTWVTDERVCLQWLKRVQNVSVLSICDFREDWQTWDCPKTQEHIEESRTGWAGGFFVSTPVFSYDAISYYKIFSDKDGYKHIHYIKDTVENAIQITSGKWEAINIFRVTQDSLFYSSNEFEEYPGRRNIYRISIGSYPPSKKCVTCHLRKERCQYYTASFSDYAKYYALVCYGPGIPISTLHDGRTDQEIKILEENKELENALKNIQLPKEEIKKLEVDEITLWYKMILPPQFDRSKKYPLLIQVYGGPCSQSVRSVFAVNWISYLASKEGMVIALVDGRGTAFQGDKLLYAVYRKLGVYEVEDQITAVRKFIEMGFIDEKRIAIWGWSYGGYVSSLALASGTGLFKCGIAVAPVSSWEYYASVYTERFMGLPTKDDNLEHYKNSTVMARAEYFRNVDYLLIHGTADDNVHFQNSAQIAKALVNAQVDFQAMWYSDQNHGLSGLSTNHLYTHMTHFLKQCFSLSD

[3] = target: T1, human FAP on cells; assay: binding to human FAP-positive HEK cells
[4] = target: FcγRIIIB (CD16b) (UniProt O75015 17-200, limits assumed); assay: SPR, Biacore S200, antibody captured on Protein A chip, FcγR as analyte
FcγRIIIB (CD16b), sequence (O75015 17-200 limits assumed): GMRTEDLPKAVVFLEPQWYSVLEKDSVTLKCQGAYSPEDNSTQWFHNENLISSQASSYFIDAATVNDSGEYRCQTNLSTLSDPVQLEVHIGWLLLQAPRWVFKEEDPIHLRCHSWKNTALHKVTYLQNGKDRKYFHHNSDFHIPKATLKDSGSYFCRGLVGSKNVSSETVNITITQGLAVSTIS
Protocol: (§1) Binding of CD40.9H3×FAP.LP62 and the analog of RO7300490 to various Fc gamma receptors (FcγR1 (CD64), FcγRIIIA (CD16a), FcγRIIIB (CD16b), FcγRIIA (CD32a), FcγRIIB (CD32b)) was determined in an analyte/capture assay in vitro. Briefly, an SPR assay was performed using a Biacore S200 with a Biacore Series S Protein A chip (Cytiva). All antibodies were prepared at 4.0 μg/ml in 1×HBS-EP+ running buffer (Cytiva) and captured onto flow cells 2, 3, and 4 through a 60 second contact time at 10 μl/min. An analyte series of the FcγRs (BMS In-House Produced) were prepared at 10,000 nM in 1×HBS-EP+ with eight, three-fold dilutions. Kinetic measurements were conducted with a 120 second association followed by a 120 second dissociation at 30 μl/min. Surface regeneration was preformed by 60 second contact time of 50 mM Glycine pH 1.5 solution (Cytiva) at 30 μl/min. Data was processed in Biacore Insight Evaluation Version 5 (Cytiva). Sensorgrams were double referenced and globally fit to a 1:1 Langmuir model were applicable. Where 1:1 model was not sufficient to describe the interaction (fast-on and fast-off rates), steady state equilibrium fitting was used to determine the equilibrium constant.

[5] = target: T3, FcγRI (CD64) (UniProt P12314 16-288, limits assumed); assay: as above
T3 construct: also called FcγR1 (CD64); FcγR1
T3 sequence (P12314 16-288 limits assumed): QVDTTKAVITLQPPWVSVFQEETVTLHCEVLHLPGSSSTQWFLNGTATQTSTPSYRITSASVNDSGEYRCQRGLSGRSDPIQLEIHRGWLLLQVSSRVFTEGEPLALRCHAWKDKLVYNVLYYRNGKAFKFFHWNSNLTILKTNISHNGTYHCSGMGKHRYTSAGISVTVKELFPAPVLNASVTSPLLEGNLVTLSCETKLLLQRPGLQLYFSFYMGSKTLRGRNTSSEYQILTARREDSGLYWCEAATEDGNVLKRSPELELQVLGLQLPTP
Protocol: as §1

[6] = target: T4, FcγRIIB (CD32b) (UniProt P31994 43-217, limits assumed); assay: as above
T4 sequence (looked up): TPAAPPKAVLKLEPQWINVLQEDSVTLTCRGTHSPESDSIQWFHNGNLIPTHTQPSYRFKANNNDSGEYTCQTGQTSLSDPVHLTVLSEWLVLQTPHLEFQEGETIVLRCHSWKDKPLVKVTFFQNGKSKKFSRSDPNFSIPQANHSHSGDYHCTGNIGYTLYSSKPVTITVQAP
Protocol: as §1

[7] = target: T5, human CD40 on cells (human, UniProt P25942 21-277); assay: binding to human CD40-positive B cells
T5 construct: Endogenous CD40 on human primary cells and Raji cells; also called CD40-positive macrophage; CD40-positive B cell
T5 sequence (P25942 21-277): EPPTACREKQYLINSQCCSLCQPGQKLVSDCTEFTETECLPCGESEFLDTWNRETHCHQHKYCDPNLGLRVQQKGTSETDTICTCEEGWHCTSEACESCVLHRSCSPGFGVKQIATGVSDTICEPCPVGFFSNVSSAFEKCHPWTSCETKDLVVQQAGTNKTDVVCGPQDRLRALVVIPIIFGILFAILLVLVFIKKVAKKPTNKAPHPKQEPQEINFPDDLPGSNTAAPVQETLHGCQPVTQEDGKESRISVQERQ

[8] = target: T1, human FAP on cells; assay: cell-based or functional assay; remark: listed apart in the source
[9] = target: T6, cyno CD40 on B cells (cynomolgus monkey, UniProt G7PG38 21-278); assay: binding to cyno CD40-positive B cells
T6 construct: whole, on cells; also called Cyno CD40-positive B cell

[10] = target: T5, human CD40 on cells; assay: binding to human CD40-positive macrophages

B1: CD40.9H3×FAP.LP62 bispecific antibody (bispecific antibody, human IgG1, kappa, L234A L235A)
heavy 1: EVQLVESGGGLVQPGGSLRLSCAASGFTFIGYSMNWVRQAPGKGLEWVSYISSYESTIYYADSVKGRFTISRDNAKNSLYLQMNSLRAEDTAVYYCARSRITLVRGVPRYFDLWGRGTLVTVSSASTKGPSVFPLAPSSKSTSGGTAALGCLVKDYFPEPVTVSWNSGALTSGVHTFPAVLQSSGLYSLSSVVTVPSSSLGTQTYICNVNHKPSNTKVDKKVEPKSCDKTHTCPPCPAPEAAGGPSVFLFPPKPKDTLMISRTPEVTCVVVSVSHEDPEVKFNWYVDGVEVHNAKTKPREEQYNSTYRVVSVLTVLHQDWLNGKEYKCKVSNKALPAPIEKTISKAKGQPREPQVYVLPPSREEMTKNQVSLLCLVKGFYPSDIAVEWESNGQPENNYLTWPPVLDSDGSFFLYSKLTVDKSRWQQGNVFSCSVMHEALHNHYTQKSLSLSPG
heavy 2: EVQLVESGGGLVQPGGSLRLSCAASGFTFIGYSMNWVRQAPGKGLEWVSYISSYESTIYYADSVKGRFTISRDNAKNSLYLQMNSLRAEDTAVYYCARSRITLVRGVPRYFDLWGRGTLVTVSSASTKGPSVFPLAPSSKSTSGGTAALGCLVKDYFPEPVTVSWNSGALTSGVHTFPAVLQSSGLYSLSSVVTVPSSSLGTQTYICNVNHKPSNTKVDKKVEPKSCDKTHTCPPCPAPEAAGGPSVFLFPPKPKDTLMISRTPEVTCVVVSVSHEDPEVKFNWYVDGVEVHNAKTKPREEQYNSTYRVVSVLTVLHQDWLNGKEYKCKVSNKALPAPIEKTISKAKGQPREPQVYVYPPSREEMTKNQVSLTCLVKGFYPSDIAVEWESNGQPENNYKTTPPVLDSDGSFALVSKLTVDKSRWQQGNVFSCSVMHEALHNHYTQKSLSLSPGGGSGGGGSGGGGSGGGGSEVQLLESGGGLVQPGGSLRLSCAASGFTFSSRGMSWVRQAPGKCLEWVSFISSSGTYVYYADSVKGRFTISRDNSKNTLYLQMNSLRAEDTAVYYCARDLPRTGVYFGMDVWGQGTTVTVSSGGGGSGGGGSGGGGSGGGGSDIQMTQSPSSLSASVGDRVTITCRASQSIFNYLNWYQQKPGKAPKLLIYGASTLQSGVPSRFSGSGSGTDFTLTISSLQPEDFATYYCQESYSTPYTFGCGTKVEIK
light: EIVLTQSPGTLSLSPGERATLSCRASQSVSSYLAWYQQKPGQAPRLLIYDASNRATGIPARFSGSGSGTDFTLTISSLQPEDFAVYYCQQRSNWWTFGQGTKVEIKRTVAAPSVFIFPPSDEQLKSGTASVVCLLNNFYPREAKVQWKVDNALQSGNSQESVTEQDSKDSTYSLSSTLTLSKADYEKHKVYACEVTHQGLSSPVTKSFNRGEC
notes: 2+1 format: two anti-CD40 9H3 Fabs on an IgG1 Fc with L234A, L235A, D265S and heterodimerization mutations; Ratio 1:1:2
With B1 the “IL12p40 release, human DC + HFF1 co-culture, EC50, soluble FAP 0 ng/mL” value [1] was 0.13 nM, the “IL12p40 release, human DC + HFF1 co-culture, EC50, soluble FAP 120 ng/mL” value [2] was 0.46 nM and the “IL12p40 release, human DC + HFF1 co-culture, EC50, soluble FAP 480 ng/mL” value [2] was 0.8 nM. For the same binder, the EC50 [3] was 3.72 nM, the binding result [4] was “no binding” and the binding result [5] was “no binding”. For the same binder, the binding result [6] was “no binding”, the EC50 [7] was 7.53 nM and the “IL12p40 secretion, human DC + HFF1 co-culture, EC50” value [8] was 0.079 nM. The “TNFα release, CD40-positive macrophages + HFF1 co-culture, EC50” value [8] was 0.12 nM, the EC50 [9] was 4.69 nM and the EC50 [10] was 11.9 nM.
